# Source: article PMC9712074 (Cell Reports, 2022)
# Target: SARS-CoV-2 (WT) Spike RBD Protein (His Tag) (SARS-CoV-2 ancestral (Wuhan-Hu-1), UniProt P0DTC2)
row,Binder,binding result
1,"BD55-5183 (antibody, V domains shown) VH: QVQLVQSGGEVKKPGSSVKVSCRASGGTFSGYTISWVRRAPGQGLEWMGGIIPMYGAANYAQKFQGRVTISAETSTGTAYMELSGLTSDDTAMYYCARDLGGEDITVAGKAPDYWGQGTLVTVSS VL: DIQMTQSPSSLSASVGDRVTVTCRASQSISKYLNWYQERPGKAPKLLIYTASSLPSEVPSRFSGSGFGTDFTLTISGLQPEDFATYYCQQSYSLPYTFGQGTKLEIK",binds
2,"BD55-5196 (antibody, V domains shown) VH: QVHLVQSGAEVRKPGASVKVSCKASGYTFTSYFMYWVRQAPGHGLEWMGMIDPISGSTNYAQRFQGRVTMTRDTSTSTVNMELTSLRSEDTAVYYCARDGGIRFGDLSPDNWFDPWGRGTLVTVSS VL: QSVLTQPPSVSGAPGQRVTISCTGSSSNLGAGYDVHWYQQLPGTAPKLLIYGNNNRPSGVPDRFSGSRSGTSASLAITGLLAEDEADYYCQSYDSSSLSGSKVFGTGTTVTVL",binds
3,"BD55-5200 (antibody, V domains shown) VH: QVQLQESDPGLVKPSQTLSLTCTVSGGSISGGSNFWNWIRQPAGKGLEWIGRIYTSGNTDYNPSLKSRVTISVDTSKNQFSLRLSSVTAADTAVYYCARDRLSGKVEVAINHFSYGLDVWGPGTTVTVSS VL: SHELTQPPSVSVSPGQTARITCSGDALPKQYAYWYQQKSGQAPVLVIYKDSERPSGIPERFSGSSSGRTVTLTISGVQAEDEADYYCQSADSSNIYLAFGGGTKVTVL",binds
4,"BD55-4662 (antibody, V domains shown) VH: QVQLQESGPGLVKPSETLSLTCTVSGASISSYYWTWIRQPPGKGLEWIGYIYNSGSTDYSPRGSTNYSPSLESRVTISVDTSKNQFSLKLSSVTAADTAVYHCARHPWTEMATYRSAYYFDSWGQGTLVTVSS VL: QSALTQPASVSGSPGQSITISCTGTTSDVGAYNHVSWYQQHPGKAPNLMIYDVSERPSGVSDRFSASKSGNTASLTISGLQAEDEADYYCCSYAGRSTWMFGGGTKLTVL",binds
5,"BD55-5164 (antibody, V domains shown) VH: QLQLQESGPGLVKPSETLSLTCIVSRGSISSSSYFWAWVRQAPGKGLEWIGTIDYTGNTHYNTSLKSRVTISVDTSKNQFSLRLRSVTAADTALYFCSRQSAPPWGSSWGDYWGRGTLVTVSS VL: DIQMTQSPSSLSASVGDRVTISCQASQDISNYLNWYHQTPGKAPILLIFDASNLEAGVPSRFSGSGSGRHFSFTISSLQPEDTGTYYCQQYANLPALTFGGGTKVDIK",binds
6,"BD55-5189 (antibody, V domains shown) VH: QVQLVQSGAEVKKPGASVKVSCKASGYSFTTFYIHWLRQAPGQGLEWMGIVNVAGDTTDYAQNFQGRVTMTRDTSTGTVYMELSSLRSEDTAIYYCASPREKGYSGYDFWETTFDIWGQGTMVTVS VL: EVVMTQSPATLSVSPGERATLSCRASQSISSNLAWYQQKPGQAPRLLIYGASTRATGIPARFSGSGSGSQFTLTISSLQSEDFVVYYCQQYNNWPPIFGQGTKLEIK",binds
7,"BD55-5182 (antibody, V domains shown) VH: EVQLVESGGGLVKPGGSLRLSCAASGFTLSNAWMTWVRQAPGKGLEWIARIKGKVDGATRDYAAPVKGRFTISTDDSKTTLFLQMNTLKTEDTAVYFCTALFTSYDMLTGRAGGRGYWGQGTLVTVSS VL: NVMLTQPHSVSESPGKTVTISCTRSSGSIASNYVQWYQQRPGSAPTTVIYEDNQRPSGVPDRFSGSIDSSSNSASLTISGLETEDEADYYCQSFDSSNHMNWVFGGGTKLTVL",binds
8,"BD55-5195 (antibody, V domains shown) VH: QLQLQESGPRLVKPSETLSLTCSVSGGSIRSNSDYWAWIRQSPGQGLEWIGSISHSGSTYYNPSLKSRVSIFVDTSSNQFSLNLTSVTAADTAVYHCARHPSSGWLILWFDPWGQGTLVTVSS VL: EIVLTQSPGTLSLSPGERATLSCRASQSISSNFLAWYQQKPGQAPRLLIYGASNRATDIPDRFSGSGSGTDFTLTVRRLEPEDFAVYYCHQYDTSPQTFGQGTKVEIK",binds
9,"BD55-4892 (antibody, V domains shown) VH: QVQLVESGGGVVQPGGSLRLSCAASGFTFSTYGMHWVRQAPGKGLEWVAVISYDGNNKYHADSVKGRFTISRDNSKNTLYLEMKSLRAEDTAVYYCAKEVNYGSGSFENEGRLDYWGQGTLVTVSS VL: DIQMTQSPSSLSASVGDRVTITCRTSQSINRYLNWYQQKPGKAPKLLIYATSTLQSGVPSRFSGSGSGTDFILTISNLQPEDFAAYYCQQTYSIPWTFGQGTKVEIK",binds
10,"BD55-4760 (antibody, V domains shown) VH: EVQLVEAGGDLVQPGRSLRLSCAASGFNFDDCAMHWVRQAPGKGLEWVSGINWSSGDIDYADSVKGRFTISRDNAKNSLYLQMNSLRPEDTAFYYCAKDPWGELSSIDFWGQGTLVTVSS VL: QLVLTQSPSASASLGASVKLTCTLSRGHSSYAIAWHQQQPEKGPRYLMRVNSDGSHIKGDGIPDRFSGSSSGAERYLTISSLQSEDEADYYCQTWSIGIRVFGGGTKLTVL",binds
11,"BD55-5001 (antibody, V domains shown) VH: QVQLVQSGSELKKPGASVKVSCKTSGYTFSTYAINWVRQAPGQGLEWMGWINTDTGIPTYAQGFTGRFVLSLDTSVGTAYLQISSLKAEDTAVYYCARADSGSYSWWFDPWGQGTLVTVSS VL: VIWMTQSPSSLSASIGDRVTISCRLSYGISSELVWYKQKPGKAPELLIYAASILQSGVPSRFSGTGSGTDFTLTISGLQSEDFATYYCQQYYSFPLTFGQGTKVEIK",binds
12,"BD55-5171 (antibody, V domains shown) VH: QVQLVQSGSGLKKPGASVKVSCRTSGYSFTDHTINWVRQAPGQGLEWMGWINTATGIPTYAQGFTGRFVFSLDTSVGTAFLLISSLQAADTAVYYCARAASWDYCGNNNCFGDYWGQGTLVTVSS VL: ENVLTQSPGTLSLSVGERVTLSCRASHSVGSSFLAWYQQKPGQAPRLLIYGASNRATGIPDRISGRGSGTDFSLTISRLEPEDFAVYYCHQYGSSPFTFGQGTKVEIK",binds
13,"BD55-5168 (antibody, V domains shown) VH: QVQLVQSGSEVKKPGSSVKVSCKASGGSFRSHAISWVRQAPGQGLEWMGCVIPTFDTANYAQNFRGRVTLTADESTSTAYMELTSLTSDDTAVYYCARLFPNGTPDSPTGPLDYWGQGTLVTVSS VL: DIQMTQSPSSLSASVGDRVTITCQASQGIGNYLNWYQQKPGKAPKLLIYGASNLHTGVPSRFSGRGSGTHFTFTINSLQPEDVATYYCQQYDYVPMYTFGQGTKLEIK",binds
14,"BD55-5163 (antibody, V domains shown) VH: QVQLVQSGAEVKKPGASLKVSCKASGYTFTYFGVSWVRQAPGQGLEWVGWISTYHGDTNYAQKLQGRVTLTTDTSTSTVYMELRNLRSDDTAIYYCAREGGSGWGDFWGQGTLVTVSS VL: EIVLTQSPATLSLSPGERATLSCRANQSISNYLAWYQQRPGQAPRLLIFDASNRATGIPARFTGSGSETDFTLTISSLEPEDFAVYYCQQRSNWPPAFGQGTRLDIK",binds
15,"BD55-5201 (antibody, V domains shown) VH: QVQVVQSGAEVKKPGSSVKVSCEASGGTFSSDTIHWVRQAPGQGLEWMGRIIPIPGIVNYAQKFQGRVTITADKSTSIAYMELSSLRSEDTAVYYCASAPPRGYSGYDLLGNDPLDIWGQGTMVTVSS VL: QSVLTQPPSVSGAPGQRVTISCTGSSSNIGAGYDVHWYQQLPGTAPKFFISVNNNRPSGVPDRFSGSKSGTSASLAITGLQAEDEAVYYCQSFDSSLSGSYVFGTGTKVTVL",binds
16,"BD55-4664 (antibody, V domains shown) VH: QVQLQQWGAGLLRPSETLSLTCAVSGGSFSGYYWSWIRQPPGKGLEWIGEINHTGGTNYNPSLKSRVTVSIDMSRNQFSVKLNSLTAADTAVYFCAREAPDYFDSSGYRFDYWGQGALVTISS VL: QSALTQPASVSGSPGQSITISCTGTSNDVGGYNYVSWYQQHPGKAPKLIIYDVTSRPSGISNRFSGSKSGNTASLTISGLQAEDEADYYCCSYTRSFTRVFGGGTKLTVL",binds
17,"BD55-5167 (antibody, V domains shown) VH: QITLKESGPTLVKPTQTLTLTCTFSGFSLTTTGMGVGWIRQPPGKAPEWLALIYWLDDTRYSPSLESRLTLTKDTSKNLVVLTMTNMDPVDTATYYCAHLYYDSSSGYDTTGPDAFDFWGQGTMVTVSP VL: AIQITQSPSSLSASPGDRVTITCRASQGISSFLAWYQQRRGRAPKLLIHSASTLQNGVPSRISGSGSGTDFTLTITGLQSEDFATYYCQQYYSYPPTFGHGTKVEF",binds
18,"BD55-5170 (antibody, V domains shown) VH: QVQLVESGGGVVQPGRSLRLSCVASGFTFNTYGMHWVRQVPGKGLEWVAVISYDGSNQIYGDSVKGRFTISRDNSKNTVYLQMNGLRAEDTAVYYCATPLHDYSGYDLFDYGYAMDVWGQGTTVTVSS VL: QSVLTQPPSASGTPGQRVTVSCSGSSSNIGSDYVYWYQQFPGTAPKLLIYRNSQRPSGVPDRFSGSKSGTSASLAISGLRSEDEADYYCAAWDGSISAWVFGGGTKLTVL",binds
19,"BD55-5175 (antibody, V domains shown) VH: QVQLVQSGPELKRPGASVKVSCETSGYTFTDYAINWVRQAPGQGLEWMGWINTNTGHPTYAQGFTGRFVFSVDMSDSTAYLQISSLKPADTAVYYCARDFQVPEGLDYWGQGTLVTVSS VL: DIVMTQSPATLSLSPGETATLSCRASYSFTSRLAWYQQKPGQAPRLLIHDASNRAPGVPARFSGSGSGTEFTLAISGLQSEDSAVYYCQQYHSWPLTFGQGTKVEIK",binds
20,"BD55-5198 (antibody, V domains shown) VH: EVQLVESGGGVVKPGGSLRLSCAASGFTFSAFAMHWVRQVPGKGLEYISLISEDGYSTFYAASVTGRFTLSRDNNKKSLYLQMNSLRSEDTAFYYCAKDIGGTVAGTGADFWGQGILVTVSS VL: QSVLTQPPSVSGAPGQKVTISCTGDSSNIGAGYTVHWYQQLPGTAPKLLIYGDNNRPSGVPDRFSGSKSGTSASLAITGLQAEDEADYYCQSYDTSLSGLWVFGGGTRLTVL",binds
21,"BD55-4495 (antibody, V domains shown) VH: QGHLVQSGAEVKEPGASVTLSCKASGYTFTNHFMHWVRQAPGQGLEWMARINPSGDSTNLAQKFQGRVSVTRDSSTSTVYMYLSRLRVEDTAVYYCARDRFPSPGNFVWGSPLGGMDVWGQGTTVTVSS VL: SYDLAQPPSVSVSPGQTATITCSGAALPNQYAYWYQQKSGQAPVLLLYKDSERPSGIPERFSGSNSGTTVTLTISGVQAEDEAVYYCQSADSSTSYHVFGAGTKVTVL",binds
